In patent US20220306765A1 one finds Kd and EC50 data, which are given here for 2 substances.

The target in one assay is human FcγRI (human) (UniProt P12314). Description: BLI (Octet), receptor on sensor. For orientation: BLI is a label-free optical method that tracks binding on a fibre tip over time.
For assay [1], the target named is human FcγRIIIb-NA1 (human) (UniProt O75015). Description: BLI (Octet), receptor on sensor.
The target of assay [2] is human FcγRIIIa-V176 (human) (UniProt P08637). Briefly: BLI (Octet), receptor on sensor.
human FcγRIIIa-V176 (human), sequence (P08637 17-208 F176V limits assumed): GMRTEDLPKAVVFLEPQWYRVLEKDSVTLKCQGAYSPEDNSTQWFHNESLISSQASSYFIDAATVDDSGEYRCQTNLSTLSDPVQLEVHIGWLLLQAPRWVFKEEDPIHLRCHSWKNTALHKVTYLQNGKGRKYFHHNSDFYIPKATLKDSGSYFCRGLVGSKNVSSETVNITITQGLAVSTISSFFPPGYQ
Assay [3] has as its target human FcγRIIa-H167 (human) (UniProt P12318). Description: BLI (Octet), receptor on sensor.
Assay [4] deals with human FcγRIIa-R167 (human) (UniProt P12318). Briefly: BLI (Octet), receptor on sensor.
human FcγRIIa-R167 (human), sequence (P12318 36-218 H167R limits assumed): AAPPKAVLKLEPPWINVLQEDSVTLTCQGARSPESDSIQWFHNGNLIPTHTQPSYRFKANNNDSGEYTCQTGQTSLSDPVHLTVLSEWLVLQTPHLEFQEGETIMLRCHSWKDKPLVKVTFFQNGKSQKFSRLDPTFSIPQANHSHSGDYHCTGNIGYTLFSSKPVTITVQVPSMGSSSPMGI
The next assay deals with human FcγRIIb (human) (UniProt P31994). Description: BLI (Octet), receptor on sensor.
human FcγRIIb (human), sequence (P31994 46-217 limits assumed): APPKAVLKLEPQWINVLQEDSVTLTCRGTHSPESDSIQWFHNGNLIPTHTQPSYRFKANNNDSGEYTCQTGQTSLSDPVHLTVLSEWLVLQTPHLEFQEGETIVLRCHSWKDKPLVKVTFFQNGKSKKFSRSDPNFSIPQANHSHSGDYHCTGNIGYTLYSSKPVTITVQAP
Assay [5] has as its target human FcγRIIIa-F176 (human) (UniProt P08637). Description: BLI (Octet), receptor on sensor.
Assay [6] deals with human FcγRIIIb-NA2 (human) (UniProt O75015). Description: BLI (Octet), receptor on sensor.
human FcγRIIIb-NA2 (human), sequence (O75015 17-200 N65S limits assumed): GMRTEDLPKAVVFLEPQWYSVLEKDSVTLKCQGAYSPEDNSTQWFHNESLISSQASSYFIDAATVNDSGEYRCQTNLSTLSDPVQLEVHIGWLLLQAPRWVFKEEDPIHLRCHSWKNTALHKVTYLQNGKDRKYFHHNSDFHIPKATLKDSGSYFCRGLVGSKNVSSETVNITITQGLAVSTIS
The target of assay [7] is human C1q (human) (UniProt P02745). Briefly: BLI (Octet RED96), biotinylated antibody on SA sensor, C1q in solution.
human C1q (human), sequence (P02745 23-245, chain 1 of 3): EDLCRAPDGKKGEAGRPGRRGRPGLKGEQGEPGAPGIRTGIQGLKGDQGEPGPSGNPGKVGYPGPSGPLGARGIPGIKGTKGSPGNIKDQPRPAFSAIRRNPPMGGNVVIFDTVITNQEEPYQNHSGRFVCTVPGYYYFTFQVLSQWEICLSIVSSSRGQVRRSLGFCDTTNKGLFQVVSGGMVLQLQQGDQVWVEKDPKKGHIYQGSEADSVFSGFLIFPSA
human C1q (human), sequence (P02746 28-253, chain 2 of 3, further chain): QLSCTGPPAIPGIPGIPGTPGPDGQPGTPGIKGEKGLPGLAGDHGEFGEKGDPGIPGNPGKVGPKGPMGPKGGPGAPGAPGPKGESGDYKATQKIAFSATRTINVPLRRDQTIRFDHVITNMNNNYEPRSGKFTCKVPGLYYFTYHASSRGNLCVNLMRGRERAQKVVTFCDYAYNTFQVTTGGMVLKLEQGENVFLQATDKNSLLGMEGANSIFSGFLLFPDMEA
human C1q (human), sequence (P02747 29-245, chain 3 of 3, further chain): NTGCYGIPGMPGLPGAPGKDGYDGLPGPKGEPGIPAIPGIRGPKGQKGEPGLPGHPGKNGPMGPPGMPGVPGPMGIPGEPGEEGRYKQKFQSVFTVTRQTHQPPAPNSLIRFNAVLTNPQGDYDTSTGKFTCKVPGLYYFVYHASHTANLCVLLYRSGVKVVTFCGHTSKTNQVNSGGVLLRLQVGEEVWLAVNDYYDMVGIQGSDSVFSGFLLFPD
Assay [8] has the same target. Description: BLI (Octet), biotinylated antibody on sensor, C1q in solution.
Assay [9] addresses human FcγRIIIa-V176 (human) (UniProt P08637). Description: BLI (Octet RED96), biotinylated receptor on SA sensor.
The target of assay [10] is human FcγRIIIa-F176 (human) (UniProt P08637). The assay is described as above.
human FcγRIIIa-F176 (human), sequence (P08637 17-208 limits assumed): as the sequence (P08637 17-208 F176V limits assumed) above, with V160F counted along it
For assay [11], the target named is Human FcRn (FCGRT&B2M) Protein (human) (UniProt P55899). Description: BLI (Octet), FcRn on sensor, pH 6.0.
Human FcRn (FCGRT&B2M) Protein (human), sequence (P55899 24-297 limits assumed, chain 1 of 2): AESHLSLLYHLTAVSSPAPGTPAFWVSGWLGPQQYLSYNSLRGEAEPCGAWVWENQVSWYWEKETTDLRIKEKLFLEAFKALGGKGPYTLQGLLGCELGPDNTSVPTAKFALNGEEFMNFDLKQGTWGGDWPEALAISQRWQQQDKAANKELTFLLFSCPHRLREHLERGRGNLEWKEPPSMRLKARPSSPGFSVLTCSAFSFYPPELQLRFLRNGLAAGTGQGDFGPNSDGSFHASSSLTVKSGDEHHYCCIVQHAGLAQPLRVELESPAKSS
Human FcRn (FCGRT&B2M) Protein (human), sequence (P61769 21-119 limits assumed, chain 2 of 2, further chain): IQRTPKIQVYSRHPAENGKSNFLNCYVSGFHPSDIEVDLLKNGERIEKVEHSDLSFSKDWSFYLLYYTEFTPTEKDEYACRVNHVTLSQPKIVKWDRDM
For assay [12] the target is unchanged. Briefly: BLI (Octet RED96), His-tagged FcRn on Ni-NTA sensor, pH 6.0.
In the next assay the target is human CLDN18.2 (human). Description: flow cytometry on NCI-H146 cells; unit taken from the concentration axis; fit of the flat control curve. A general note: Flow cytometry measures light scatter and fluorescence of single cells or particles in a stream.

human FcγRI (human), sequence (P12314 16-288 limits assumed): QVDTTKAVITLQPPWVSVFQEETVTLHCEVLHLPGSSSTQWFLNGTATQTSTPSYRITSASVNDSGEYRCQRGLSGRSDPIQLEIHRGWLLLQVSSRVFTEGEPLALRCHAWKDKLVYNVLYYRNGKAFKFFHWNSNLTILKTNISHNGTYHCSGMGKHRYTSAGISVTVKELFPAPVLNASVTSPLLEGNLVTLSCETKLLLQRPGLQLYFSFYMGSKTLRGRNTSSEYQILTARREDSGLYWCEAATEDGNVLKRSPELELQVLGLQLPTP
human FcγRIIa-H167 (human), sequence (P12318 36-218 limits assumed): as the sequence (P12318 36-218 H167R limits assumed) above, with R132H counted along it
human FcγRIIIb-NA1 (human), sequence (O75015 other isoform, or with tags, fused parts or gaps limits assumed): as the sequence (O75015 17-200 N65S limits assumed) above, with S20R, S49N, N66D, I90V counted along it

In general, Kd refers to the constant that tells how readily two partners part at equilibrium. The low end stands for tighter binding, the high end for weaker binding. Regarding IMAB362 (antibody), the Kd worked out at 5.22 nM with human FcγRI (human); 3970 nM in assay [1]; 61.5 nM in assay [2]; 193 nM in assay [3]; 117 nM in assay [4]; 230 nM with human FcγRIIb (human). The Kd was 232 nM in assay [5]; 3160 nM in [6]; 21.5 nM in the assay with human C1q (human) [7]; 21.5 nM with human C1q (human) [8]; 61.5 nM in assay [9]; 232 nM in assay [10]. Further, the Kd in assay [11] and in [12] was 10.5 nM throughout.
For orientation: EC50 means the concentration giving half of the maximal effect. A lower EC50 goes with higher potency in that assay. The substance Isotype Control (antibody) showed an EC50 in the assay with human CLDN18.2 (human) of 3.67 µg/mL.
